In the DeepSol protein solubility set:

test: soluble on expression in E. coli; label from the status in PepcDB or PDB records

Sequence | soluble on expression in E. coli
MAHHHHHHMSGRLRLYKEKLEGYNRFYSIVKTIKMVTMAKFRQAQVRIKTRDYTLRYTEKAFSKPGQLVGDSPQAKAIYIPVMTNRGSCGALNSNVVKVIDSVASSRAYLMPLGKRGIESLSKLYPSSFRMGIVNDMHEPMHFAYATYVWENAQQLCPEADRVHVIFHRCVSAGSQKQCYYNIPSYEKWREDLADASSTENQKSRYLFANTLLNEDEQMIRDFYDFHATLAILNAVCENELSEQAARLVAVEGQLSNISTLQQKTSSLYNKTRQSSITSSLIEIISAMTSLEGNAAKGVQRTNFWEGARMK | not soluble
MRSKYIVIEGLEGAGKTTARNVVVETLEQLGIRDMVFTREPGGTQLAEKLRSLLLDIKSVGDEVITDKAEVLMFYAARVQLVETVIKPALANGTWVIGDRHDLSTQAYQGGGRGIDQHMLATLRDAVLGDFRPDLTLYLDVTPEVGLKRARARGELDRIEQESFDFFNRTRARYLELAAQDKSIHTIDATQPLEAVMDAIRTTVTHWVKELDA | soluble
MSTIHTPLTYNEINGKPFGLDYELAKQFADYLGVKLKVTVRQNISQLFDDLDNGNADLLAAGLVYNSERVKNYQPGPTYYSVSQQLVYKVGQYRPRTLGNLTAEQLTVAPGHVVVNDLQTLKETKFPELSWKVDDKKGSAELMEDVIEGKLDYTIADSVAISLFQRVHPELAVALDITDEQPVTWFSPLDGDNTLSAALLDFFNEMNEDGTLARIEEKYLGHGDDFDYVDTRTFLRAVDAVLPQLKPLFEKYAEEIDWRLLAAIAYQESHWDAQATSPTGVRGMMMLTKNTAQSLGITDRTDAEQSISGGVRYLQDMMSKVPESVPENERIWFALAAYNMGYAHMLDARALTAKTKGNPDSWADVKQRLPLLSQKPYYSKLTYGYARGHEAYAYVENIRKYQISLVGYLQEKEKQATEAAMQLAQDYPAVSPTELGKEKFPFLSFLSQSSSNYLTHSPSLLFSRKGSEEKQNLEHHHHHH | soluble
MAKLYFYYSTMNAGKSTTLLQSSYNYRERDMNTLVYTAAIDDRFGVGKVTSRIGISQDAFLFRSETNLFDEINEHLKKEKVHCVLVDEAQFLSKQQVYQLSDVVDKLKIPVLCYGLRTDFQAELFEGSKYLLAWADQLEELKTICYCGRKANFVLRLNDQGEVIKEGAQIQIGGNDSYLSVCRLHYKEKCGQILEHHHHHH | soluble
MGSDKIHHHHHHMRYRPVIGLEIHVQLSTKTKAFCSCPADVFELPPNTAICPVCTGQPGALPVPNEEMIRFAVKTALALNCKIHKYSRFDRKNYFYPDLPKGYQISQYFYPIATEGFLEIDGDEGRKKVRIRRLHLEEDAGKLVHEGDSITRASYSLVDMNRCGVPLIEIVTEPDISSPREARVFMEKLRSIVRYLGVSTGDMEKGALRCDANISVVDTETGRQSNRVEVKNMNSFRFVERALEYEFERIVKAMERGEDVERETRGWDMATKITVSMRGKEEESDYRYFPEPDIPPVVLSDEYLEEVKKELPELPDEKAERFMREYGLPEYDAKVLTSSKELAEFFEECVKVVNRPKDLSNWIMTEVLRELNERNIEITESKLTPQHFADLFKLMDEGKISIKIAKEIFPEVFETGKMPSQIVEEKGLTQINDEKLIEELVKKAMEQNPKAVQDYKSGKKKAAGFFVGYVMRETKGKANPELTNRIIQKLLEGE | not soluble
MKVYSKDDIVEQAKELAKMISETEEVDFFKKAEAQIHKNENVKRAIDEIKALQKQAVNLQHYGKWEALKKVEAEIDALQDKLDSIPVVQQFKSSQTYVNDLLQLVASTISNNVTDEILISTGGDVLKGETGAAVESKKGNCGC | not soluble
MSLYPAEHKEVMVQLMNQGNRSSLMQAWIDDGDTSLPPEKIQVPFMLTPPVAKIGANSGQQVKIKIMPNKLPTNKESIFYLNVLDIPPNSPEQEGKNALKFAMQNRIKLFYRPAGIAPVNKVTFKKLLVNRSGNGLVIKNDSANWVTISDVKANNVKVNYETIMIAPLESQSVNVKSNNANNWHLTIIDDHGNYISDKEGHHHHHH | not soluble
MNKILLVDDDRELTSLLKELLEMEGFNVIVAHDGEQALDLLDDSIDLLLLDVMMPKKNGIDTLKALRQTHQTPVIMLTARGSELDRVLGLELGADDYLPKPFNDRELVARIRAILRRSHWSEQQQNNDNGSPTLEVDALVLNPGRQEASFDGQTLELTGTEFTLLYLLAQHLGQVVSREHLSQEVLGKRLTPFDRAIDMHISNLRRKLPDRKDGHPWFKTLRGRGYLMVSAS | soluble
MEKLLIEGGRALNGTIRVSGAKNSAVALIPATILADTPVTIGGVPNISDVKMLGDLLEEIGGRVTYGQEEEMVVDPSNMVAMPLPNGKVKKLRASYYLMGAMLGRFKKAVIGLPGGCHLGPRPIDQHIKGFEALGAHVTNEQGAIYLRADELRGARIYLDVVSVGATINIMLAAVRAKGRTVIENAAKEPEIIDVATLLTSMGARIKGAGTDVIRIDGVDSLHGCHHTIIPDRIEAGTYMILGAASGGEVTVDNVIPQHLESVTAKLREAGVQVETNDDQITVNGDRRLKVVDIKTLVYPGFPTDLQQPFTTLLTKAHGTGVVTDTIYGARFKHIDELRRMNAQIKVEGRSAIVTGPVLLQGAKVKASDLRAGAALVIAGLMADGITEVTGLEHIDRGYENIVDKLKGLGANIWREQMTKQEIEEMKNA | not soluble
MRIHAFHRLYQYRQSISTKPFNARGCKVQRCPFCQVSEQHCLCELQPDIDSNVACMLIVSENEVFKPSNTGRLIADTVKETYVYQWNRTEPSQEMLDLLSNEDYLPVIVFPADYVDQPERLLDGLHTEHLHRTDGNSKKWLLIFIDGSWREARKIFRRSEFLQSLPVLSIEPECLSEYIMRRSENEQHLSTAEVATLVLKQAGENKASECLQLWFEAFRETYMLTKTRVKNDPNRPHLKRFKEWLKTESLEHHHHHH | not soluble
MYEGEIAIGPVHSTMLEPHRLRLFIEDEIVKDAELTIGVNHRGVERLMEGLPVEKACILCEKICGICSHIHLWSAARVAEIGCNIEVPERANHIRIIVEELERLHSHTLLFGHAFEILGHETMSMRCFMLREPIMQVFFEISGSRVHYSCPIIGGIRPRCNISETQISHIHDKISQYEEGLTKFIERMLNDPMIISRVKDVGVMDRKTAAKFHAVGPTARGSNVKSDMRKWGWVPEYDPYDFDEILFDSGDVFARLAVRFYECLESVKIIRQALDALKDTSDKRIYNPNYELNEFKPINCYTEAQRGEQYYSYGLDDEGLVRQAKIRTPTATNLGAMEDIVKGYHVSDAELIIASCDPCFTCTDRLMVLKEPFKK | not soluble
MGSDKIHHHHHHMIFKRKVYDKLIEWKTLAAGTSAVLLEGARRIGKSTIVEEFAKKEYDDYMILDFARENQDVKNNFVENMNDLDTFFRNLFLLKGKRLKGKNCVIIFDEVQLFPQARQAIKYLVADGRYEYIETGSLISIRKNVKDILIPSEEYRIKMYPMDFEEYLWAINDEVTIPTIRESFEKRKPLGDAIHRRIMKSFRTYMVVGGMPQAVDAYVSGKSYEQIDFVKRNILSLYEEDLAKYDTENREKASVIYRTIPEQLENKNSHFKLSMVDKNARYQNYMDAVSFISEAMIGNECINVTKPEVALELFADRSNFKLYMGDTGLLVTQIMKNRDSTDEDLYKALIIDNLGINQGMIVENIVAQMLRAAGHELYFHEYLYVPEGTTREKKYEIDFMIVKKKKICPIEVKSSNYMSHKSFDYLIQKYQLKCENRFIIYTKDLKYQDGIMYIPIYMTMLL | not soluble
MTEFYSDTIGLPKTDPRLWRLRTDELGRESWEYLTPQQAANDPPSTFTQWLLQDPKFPQPHPERNKHSPDFSAFDACHNGASFFKLLQEPDSGIFPCQYKGPMFMTIGYVAVNYIAGIEIPEHERIELIRYIVNTAHPVDGGWGLHSVDKSTVFGTVLNYVILRLLGLPKDHPVCAKARSTLLRLGGAIGSPHWGKIWLSALNLYKWEGVNPAPPETWLLPYSLPMHPGRWWVHTRGVYIPVSYLSLVKFSCPMTPLLEELRNEIYTKPFDKINFSKNRNTVCGVDLYYPHSTTLNIANSLVVFYEKYLRNRFIYSLSKKKVYDLIKTELQNTDSLCIAPVNQAFCALVTLIEEGVDSEAFQRLQYRFKDALFHGPQGMTIMGTNGVQTWDCAFAIQYFFVAGLAERPEFYNTIVSAYKFLCHAQFDTECVPGSYRDKRKGAWGFSTKTQGYTVADCTAEAIKAIIMVKNSPVFSEVHHMISSERLFEGIDVLLNLQNIGSFEYGSFATYEKIKAPLAMETLNPAEVFGNIMVEYPYVECTDSSVLGLTYFHKYFDYRKEEIRTRIRIAIEFIKKSQLPDGSWYGSWGICFTYAGMFALEALHTVGETYENSSTVRKGCDFLVSKQMKDGGWGESMKSSELHSYVDSEKSLVVQTAWALIALLFAEYPNKEVIDRGIDLLKNRQEESGEWKFESVEGVFNHSCAIEYPSYRFLFPIKALGMYSRAYETHTL | soluble
MKPRPQSDAVDNEGPTPLSKGRRHLAMRLDDAWLGFQTRLAIRRGRVETVIPYTGYGSTSWVRVLARIVRSDPRDAAGHTNPLQESMRGWRNFTSAPVAHASVQVTIDGTVHDVVADRGGVVDARIPVALDAGWHTITLRSGESETVEAPVEIVADDAVFGVVSDIDDTVMVTALPRPFLAAWNTFVLNEHARTPTPGMAVLYERIARTAPSAPVLYLSTGAWNVAPTLSRFLSRNLYPAGPKLLTDWGPTPDRWFRSGQEHKRTSLERLAEEFPNIKWLLVGDDGQHDEAIYSEFAQRHPASVRAIAIRQLSAGEAVLAGGRSKSGGQPTPGVPWIYAPDGAGMSAQLEELGIIRLEHHHHHH | not soluble
MSLNPYKIEVVDHTKLVESNTSINEKEEKSISSVEERANLYEDDEENDEEEDSNEFASEAIPFYSVLGEKDYFYFPSEQIQEHYSKRIPGYFMPNNYYCVNYDFTYNPVKKNVNGDEDDDDDEEEEEGDSGTDRKVKTQEKFRASFIFIDTWALMVGFPIIRNYRAFREQFNWLSKTLYESAKKSDWIFVVGHHPLISSGRRSDNYSYEEHSFHDIIRDFLFNYHVDAYFSAHDHLMEYIKFGSVDLFINGSSSRVLFDNSSMGRGYFGKIIGKLYPLSCYVLKTIHTGLKPKGCNINRYSKWYNKSDIGFSTHKLTKDELVTQFISSRTGKPLSEKIITKNKKHEREGHHHHHH | soluble
MSLSTQTVTIKSLGAQGDGIAHCPDGPVYVPFALPGETVAIAKVKDQGTVMSITEASADRRDPVCRHFGPEGINGTCGGCSLQHLADQPYHAFKRELVVSALRSKGLTPPVDDLVICRPGERRRAVFAARKTEKGLLLGFSQANSHHIVAIEECPVTSPGIVSRFDAIRAIGLSMVANAEPFRITVLETLSGLDISVEGIKSVNDKQRRTLTETVLAMRGIARVSLSGEILIEPQKPIIEFGGIPVSPPAGGFTQATKQAEDAMAELMLAHVGKSKRIADLFCGSGTFALRLARIGRVHAVEAEDKALKALDFAARNTQGLKPVSVEKRDLFRRPLMTSELKNYDAVVFDPPRAGAEVQCKELARSTVKKIVAVSCNPLTLARDLAILTEGGYRVTRVTPVDQFLWSPHVEAVAVLEKEGHHHHHH | soluble
MLDPRLSVAPMVDRTDRHFRFLVRQVSLGVRLYTEMTVDQAVLRGNRERLLAFRPEEHPIALQLAGSDPKSLAEAARIGEAFGYDEINLNLGCPSEKAQEGGYGACLLLDLARVREILKAMGEAVRVPVTVKMRLGLEGKETYRGLAQSVEAMAEAGVKVFVVHARSALLALSTKANREIPPLRHDWVHRLKGDFPQLTFVTNGGIRSLEEALFHLKRVDGVMLGRAVYEDPFVLEEADRRVFGLPRRPSRLEVARRMRAYLEEEVLKGTPPWAVLRHMLNLFRGRPKGRLWRRLLSEGRSLQALDRALRLMEEEVGEEGEKEKPGPRGQREAAPGPAREGV | soluble
MQGFELEDLTLWLIRDAGEDQMWIDRWAISYPVVQMSEASAGQSIGEWQAGLQTAFERIRGKYVAVVAHGAGAAAFLAWLYQADILTRKKIANIILVPQRPDIFPDDAEHAFQRVRCPCRAALVVPEHGGVPHGWAQKQADLWNARLLVSPHSGSLNGMLGGWQWGMKLMQEMLLA | not soluble
